{
  "source": "paper PMC3057456",
  "test_system": "LUX ARRHYTHMO (LUX/PCL1) (Arabidopsis)",
  "assay": "protein binding microarray",
  "conditions": "not stated in the material",
  "data": [
    {"substance": "PBM top-ranked 8-mer AGATACGC", "values": [
      {"measurement": "binding signal (PBM E-score (-0.5 to 0.5))", "result": 0.487}
    ]}
  ]
}
